Laboratory results taken from patent US20210107998A1 (Boehringer Ingelheim, published 2021).

Columns and labels:
[1] = target: T1, Recombinant human BAFF trimer (Boehringer Ingelheim Pharmaceuticals, Inc.) (human, UniProt Q9Y275 134-285, limits assumed); assay: cell-based or functional assay
[2] = target: Recombinant cynomolgus BAFF trimer (Boehringer Ingelheim Pharmaceuticals, Inc.) (cynomolgus, UniProt A0A2K5V2X4 134-285); assay: cell-based or functional assay
[3] = target: T1, Recombinant human BAFF trimer …; assay: cell-based or functional assay; remark: listed apart in the source
[4] = target: Recombinant human BAFF 60mer (Boehringer Ingelheim Pharmaceuticals, Inc.) (human, UniProt Q9Y275 134-285, limits assumed); assay: cell-based or functional assay
[5] = target: membrane-bound human BAFF on fixed CHO-K1 cells (human, UniProt Q9Y275 1-285); assay: cell-based or functional assay
Recombinant human IL-23 [6] = target: T2, Recombinant human IL-23 (human, UniProt P29460 23-328); assay: cell-based or functional assay
T2 sequence 1: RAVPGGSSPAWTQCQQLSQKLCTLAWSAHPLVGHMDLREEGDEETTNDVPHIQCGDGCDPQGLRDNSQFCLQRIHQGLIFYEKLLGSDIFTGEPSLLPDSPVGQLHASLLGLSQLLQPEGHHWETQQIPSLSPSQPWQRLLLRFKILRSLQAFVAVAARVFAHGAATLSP
T2 sequence 2: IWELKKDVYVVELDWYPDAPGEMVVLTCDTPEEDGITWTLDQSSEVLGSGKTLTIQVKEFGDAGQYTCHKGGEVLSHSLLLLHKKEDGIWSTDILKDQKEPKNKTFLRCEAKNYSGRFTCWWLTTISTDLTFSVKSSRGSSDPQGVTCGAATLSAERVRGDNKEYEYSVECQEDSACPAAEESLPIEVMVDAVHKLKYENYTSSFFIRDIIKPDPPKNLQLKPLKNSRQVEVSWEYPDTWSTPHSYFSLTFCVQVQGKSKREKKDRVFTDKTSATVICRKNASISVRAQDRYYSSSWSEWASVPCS

cynomolgus IL-23 [7] = target: T3, cynomolgus IL-23 (cynomolgus, UniProt H6WS56 20-189); assay: cell-based or functional assay
Recombinant human IL-23 [8] = target: T2, Recombinant human IL-23; assay: cell-based or functional assay; remark: listed apart in the source
cynomolgus IL-23 [9] = target: T3, cynomolgus IL-23; assay: SPR (ProteOn XPR36), compound captured on goat anti-human IgG Fc, antigen injected
Protocol: (§1) SPR experiments were performed on a ProteOn XPR36 instrument (Bio Rad). A GLM chip was preconditioned with sequential injections of 60 sec of 0.5% SDS, 50 mM NaOH, and 100 mM HCl at a flow rate of 30 μl/min both vertical and horizontal directions.
(§2) The preconditioned GLM chip was then activated by an injection of EDC (76.7 mg/ml) and sulfo-NHS (21.7 mg/ml) mixture with ratio of 1:1 in 6 horizontal channels. Goat-anti-human IgG (GAHA) Fc gamma (Invitrogen) at a concentration of 30 μg/ml in 10 mM, pH 5.0 sodium acetate buffer was immobilized to 8,000 resonance units on the activated GLM chip in 6 horizontal channels. The chip was finally deactivated with 1 M ethanolamine HCl in 6 horizontal channels. The prepared GAHA chip was rotated to vertical direction to capture test compounds, over 5 vertical channels and the last channel was used as a column reference. The captured chip was then rotated again to the horizontal direction for binding. […] The dissociation was allowed for 2 hour. The GAHA surface was regenerated using short pulse injection (18 seconds) of 0.85% phosphoric acid (Bio Rad) at a flow rate of 100 μl/min both horizontal and vertical directions after 10 min association and 2 hr dissociation. The regenerated GAHA was ready for another binding cycle.

human BAFF [10] = target: T4, human BAFF (human, UniProt Q9Y275 134-285, limits assumed); assay: as above
T4 construct: also called hu BAFF; hBAFF
Protocol: as §1, §2

cynomolgus BAFF = target: T5, cynomolgus BAFF (cynomolgus, UniProt A0A2K5V2X4 134-285); assay: as above
T5 construct: construct not described
Protocol: as §1, §2

[11] = target: T6, Linked human IL-23 (Boehringer Ingelheim Pharmaceuticals, Inc.) (human, UniProt P29460 23-328); assay: as above
T6 sequence 1: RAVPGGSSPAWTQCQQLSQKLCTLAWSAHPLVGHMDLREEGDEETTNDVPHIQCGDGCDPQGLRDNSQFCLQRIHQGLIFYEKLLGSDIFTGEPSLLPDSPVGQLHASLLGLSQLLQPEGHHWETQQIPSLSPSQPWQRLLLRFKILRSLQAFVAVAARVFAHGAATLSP
T6 sequence 2: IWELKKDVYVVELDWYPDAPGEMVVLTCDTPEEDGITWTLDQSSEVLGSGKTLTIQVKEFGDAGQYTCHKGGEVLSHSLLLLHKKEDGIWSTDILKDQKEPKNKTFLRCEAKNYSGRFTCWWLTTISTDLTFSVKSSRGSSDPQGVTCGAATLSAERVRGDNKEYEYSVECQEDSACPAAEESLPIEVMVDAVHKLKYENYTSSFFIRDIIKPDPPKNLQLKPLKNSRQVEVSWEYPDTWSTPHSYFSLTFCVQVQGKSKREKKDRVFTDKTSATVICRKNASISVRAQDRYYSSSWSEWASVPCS
Protocol: as §1, §2

human BAFF [12] = target: T4, human BAFF; assay: BLI (Octet RED96, streptavidin tips), compound incubated 48 h at 37 C in whole blood vs kinetic buffer
Protocol: (§3) A whole blood interference assay was developed on an Octet RED96 to detect the effects of non-specific binding or off-target binding for compounds in the presence of whole blood (WB). The compound solutions in whole blood and 1× kinetic running buffer (1×kb) were incubated at a temperature of 37° C. for 48 hours. Kinetic measurements for the incubated compound samples were performed with an Octet RED96 equipped with streptavidin (SA) biosensor tips (ForteBio, Menlo Park, Calif.) at 27° C. The ratio of the on-rates/binding signals in buffer and whole blood were reported. A ratio <2 was considered to show no interference.

Recombinant human IL-23 [13] = target: T2, Recombinant human IL-23; assay: as above
Protocol: as §3

B1: Compound A (bispecific antibody, human IgG1, kappa, L234A L235A)
chain 1: DIQMTQSPSSLSASVGDRVTITCKASRDVAIAVAWYQQKPGKVPKLLIYWASTRHTGVPSRFSGSGSRTDFTLTISSLQPEDVADYFCHQYSSYPFTFGSGTKLEIKGGGSGGGGQVQLVQSGAEVKKPGASVKVSCKASGYSFSTFFIHWVRQAPGQGLEWIGRIDPNSGATKYNEKFESRVTMTRDTSISTAYMELSRLRSDDTAVYYCARGEDLLIRTDALDYWGQGTSVTVSSLGGGSGASTKGPSVFPLAPSSKSTSGGTAALGCLVKDYFPEPVTVSWNSGALTSGVHTFPAVLQSSGLYSLSSVVTVPSSSLGTQTYICNVNHKPSNTKVDKRVEPKSCDKTHTCPPCPAPEAAGGPSVFLFPPKPKDTLYITREPEVTCVVVDVSHEDPEVKFNWYVDGVEVHNAKTKPREEQYNSTYRVVSVLTVLHQDWLNGKEYKCKVSNKALPAPIEKTISKAKGQPREPQVYTLPPSREEMTKNQVSLTCLVKGFYPSDIAVEWESNGQPENNYKTTPPVLDSDGSFFLYSKLTVDKSRWQQGNVFSCSVMHEALHNHYTQKSLSLSPG
chain 2: DIQMTQSPSSLSASVGDRVSITCKASQNAGIDVAWFQQKPGKAPKLLIYSKSNRYTGVPSRFSGSGSGTDFTLTISSLQPEDFATYYCLQYRSYPRTFGQGTKLEIKGGGSGGGGQVQLVQSGAEVKKPGSSVKVSCKASGYTFTDQTIHWMRQAPGQGLEWIGYIYPRDDSPKYNENFKGKVTITADKSTSTAYMELSSLRSEDTAVYYCAIPDRSGYAWFIYWGQGTLVTVSSLGGGSGRTVAAPSVFIFPPSDEQLKSGTASVVCLLNNFYPREAKVQWKVDNALQSGNSQESVTEQDSKDSTYSLSSTLTLSKADYEKHKVYACEVTHQGLSSPVTKSFNRGEC
notes: Made in CHO-S cells
IC50, NFkB luciferase reporter, human BAFFR-CHO cells [1]: 0.043 nM | IC90, NFkB luciferase reporter, human BAFFR-CHO cells [1]: 0.18 nM | IC50 Geomean, NFkB luciferase reporter, human BAFFR-CHO cells [2]: 0.132 nM | IC90 Geomean, NFkB luciferase reporter, human BAFFR-CHO cells [2]: 0.191 nM | IC50 Geomean, NFkB luciferase reporter, human TACI-CHO cells [3]: 0.159 nM | IC90 Geomean, NFkB luciferase reporter, human TACI-CHO cells [3]: 0.417 nM | IC50, NFkB luciferase reporter, human BAFFR-CHO cells [4]: 0.006 nM | IC90, NFkB luciferase reporter, human BAFFR-CHO cells [4]: 0.019 nM | IC50, NFkB luciferase reporter, human BAFFR-CHO cells stimulated with fixed human BAFF CHO-K1 cells [5]: 0.118 nM | IC90, NFkB luciferase reporter, human BAFFR-CHO cells stimulated with fixed human BAFF CHO-K1 cells [5]: 1.02 nM | IC50, STAT3-luciferase reporter in DB lymphoblast B cells (Recombinant human IL-23 [6]): 0.145 nM | IC90, STAT3-luciferase reporter in DB lymphoblast B cells (Recombinant human IL-23 [6]): 1.23 nM | IC50, IL-23-induced mouse IL-17 release from mouse splenocytes (cynomolgus IL-23 [7]): 0.155 nM | IC90, IL-23-induced mouse IL-17 release from mouse splenocytes (cynomolgus IL-23 [7]): 1.31 nM | IC50, IL-23-induced mouse IL-17 release from mouse splenocytes (Recombinant human IL-23 [8]): 0.146 nM | IC90, IL-23-induced mouse IL-17 release from mouse splenocytes (Recombinant human IL-23 [8]): 1.65 nM | Kd (cynomolgus IL-23 [9]): < 0.015 nM | Kd (human BAFF [10]): < 0.015 nM | Kd (cynomolgus BAFF): < 0.015 nM | Kd [11]: < 0.015 nM | Ratio of binding signal in WB/kinetic buffer (human BAFF [12]): 1.2 | Ratio of binding signal in WB/kinetic buffer (Recombinant human IL-23 [13]): 1.1

B2: Compound D (bispecific antibody, human IgG4 S228P, kappa)
chain 1: DIQMTQSPSSLSASVGDRVTITCKASRDVAIAVAWYQQKPGKVPKLLIYWASTRHTGVPSRFSGSGSRTDFTLTISSLQPEDVADYFCHQYSSYPFTFGSGTKLEIKGGGSGGGGQVQLVQSGAEVKKPGASVKVSCKASGYSFSTFFIHWVRQRPGQGLEWIGRIDPNSGATKYNEKFESKVTLTRDTSISTAYMELSRLRSDDTAVYYCARGEDLLIRTDALDYWGQGTSVTVSSLGGGSGASTKGPSVFPLAPCSRSTSESTAALGCLVKDYFPEPVTVSWNSGALTSGVHTFPAVLQSSGLYSLSSVVTVPSSSLGTKTYTCNVDHKPSNTKVDKRVESKYGPPCPPCPAPEFLGGPSVFLFPPKPKDTLYITREPEVTCVVVDVSQEDPEVQFNWYVDGVEVHNAKTKPREEQFNSTYRVVSVLTVLHQDWLNGKEYKCKVSNKGLPSSIEKTISKAKGQPREPQVYTLPPSQEEMTKNQVSLTCLVKGFYPSDIAVEWESNGQPENNYKTTPPVLDSDGSFFLYSRLTVDKSRWQEGNVFSCSVMHEALHNHYTQKSLSLSLG
chain 2: DIQMTQSPSSLSASVGDRVSITCKASQNAGIDVAWFQQKPGKAPKLLIYSKSNRYTGVPSRFSGSGSGTDFTLTISSLQPEDFADYYCLQYRSYPRTFGGGTKLEIKGGGSGGGGQVQLVQSGAEVKKPGSSVKVSCKASGYTFTDQTIHWMRQAPGQGLEWIGYIYPRDDSPKYNENFKGKVTITADKSTSTAYMELSSLRSEDTAVYYCAIPDRSGYAWFIYWGQGTLVTVSSLGGGSGRTVAAPSVFIFPPSDEQLKSGTASVVCLLNNFYPREAKVQWKVDNALQSGNSQESVTEQDSKDSTYSLSSTLTLSKADYEKHKVYACEVTHQGLSSPVTKSFNRGEC
notes: Large chain: IL23A(1) VL - BAFF(6) VH - LGGGSG - IgG4-Pro-YTE; small chain: BAFF(6) VL - IL23A(1) VH - LGGGSG - CL; Tetravalent format
IC50, NFkB luciferase reporter, human BAFFR-CHO cells [1]: 0.034 nM | IC90, NFkB luciferase reporter, human BAFFR-CHO cells [1]: 0.172 nM | IC50 Geomean, NFkB luciferase reporter, human BAFFR-CHO cells [2]: 0.118 nM | IC90 Geomean, NFkB luciferase reporter, human BAFFR-CHO cells [2]: 0.248 nM | IC50 Geomean, NFkB luciferase reporter, human TACI-CHO cells [3]: 0.163 nM | IC90 Geomean, NFkB luciferase reporter, human TACI-CHO cells [3]: 0.436 nM | IC50, NFkB luciferase reporter, human BAFFR-CHO cells [4]: 0.004 nM | IC90, NFkB luciferase reporter, human BAFFR-CHO cells [4]: 0.012 nM | IC50, NFkB luciferase reporter, human BAFFR-CHO cells stimulated with fixed human BAFF CHO-K1 cells [5]: 0.104 nM | IC90, NFkB luciferase reporter, human BAFFR-CHO cells stimulated with fixed human BAFF CHO-K1 cells [5]: 0.938 nM | IC50, STAT3-luciferase reporter in DB lymphoblast B cells (Recombinant human IL-23 [6]): 0.128 nM | IC90, STAT3-luciferase reporter in DB lymphoblast B cells (Recombinant human IL-23 [6]): 3.09 nM | IC50, IL-23-induced mouse IL-17 release from mouse splenocytes (cynomolgus IL-23 [7]): 0.097 nM | IC90, IL-23-induced mouse IL-17 release from mouse splenocytes (cynomolgus IL-23 [7]): 1.55 nM | IC50, IL-23-induced mouse IL-17 release from mouse splenocytes (Recombinant human IL-23 [8]): 0.105 nM | IC90, IL-23-induced mouse IL-17 release from mouse splenocytes (Recombinant human IL-23 [8]): 1.7 nM | Kd (cynomolgus IL-23 [9]): < 0.015 nM | Kd (human BAFF [10]): < 0.015 nM | Kd (cynomolgus BAFF): < 0.015 nM | Kd [11]: < 0.015 nM | Ratio of binding signal in WB/kinetic buffer (human BAFF [12]): 1.3 | Ratio of binding signal in WB/kinetic buffer (Recombinant human IL-23 [13]): 1.7
